In paper PMC6754583 one finds mean dwell time between stem transitions (fits to individual datasets), mean dwell time between stem transitions (global fit) and midpoint force F1/2 of stem opening data, which are given here for one substance.

The target of the test is full-length von Willebrand factor (VWF) dimer, hetero-bifunctional construct (UniProt P04275). In words: magnetic tweezers single-molecule force spectroscopy.

“full-length von Willebrand factor (VWF) dimer, hetero-bifunctional construct (from UniProt P04275 764-2813; P04275 764-2813) (natural protein)” returned a mean dwell time between stem transitions (fits to individual datasets) of 0.28 s, a mean dwell time between stem transitions (global fit) of 0.28 s and a midpoint force F1/2 of stem opening of 1 pN.
